# Assay results: the RNAGym collection of RNA variant scans (doi:10.1073/pnas.2313332121)
# Fewer inactive variants are shown than the library holds.
# B1: TPR 5TU (parent)
# chain: GGAUCUUCUCGAUCUAACAAAAAAGACAAAUCUGCCACAAAGCUUGAGAGCAUCUUCGGAUGCAGAGGCGGCAGCCUUCGGUGGCGCGAUAGCGCCAACGUUCUCAACUAUGACACGCAAAACGCGUGCUCCGUUGAAUGGAGUUUAUCAUG
# Variants of: B1
# Experiment: polymerase ribozyme fitness, log enrichment relative to wild type (log ratio); higher = more active; in vitro selection for triplet polymerase activity
# Procedure, shortened: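 Only genotypes with ≥10 input reads and ≥1 read per output were kept after Illumina sequencing of input and output libraries. These libraries were PCR-built, transcribed mutants of each subunit of a heterodimeric triplet polymerase ribozyme, each put through one triplicate in vitro selection round with frozen incubation at −7 °C, gel excision of extended constructs, streptavidin-bead capture and RT-PCR. Fitness is a logarithmic ratio of genotype enrichment to wild-type enrichment, from inverse-variance-weighted replicate averages, with the logarithm in base 2.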
row,Variant,polymerase ribozyme fitness (log ratio)
1,C85U A91C,≤ -4.2
2,G83A G94A,-1.17
3,U82G G88C C93U C95G,≤ -4.2
4,G81U C125A,-0.8
5,G83C C95U G136A C149U,-2.18
6,G83C G124A A137G,-1.97
7,G83C C99G,-3.88
8,G83A G92U C96A A147C,-3.05
9,U82G C85G G92C C114A,≤ -4.2
10,C85A C105U A150G,-2.08
11,U82A C95U,-0.587
12,G83A G92U G133C A142G,-3.79
13,G80C C85A G94C C132U G141U U148C,≤ -4.2
14,G80A A113C U145A,-3.89
15,G83U C118A,-1.04
16,G83A G136A,-0.0141
17,G84A C116G A121U,0.52
18,G83U C116U A122C,-2.43
19,C85U A107C C131U,-4.07
20,G81A A91U U101G C103A,≤ -4.2
21,G81A A147U,0.732

row,Variant,polymerase ribozyme fitness (log ratio)
1,G83A G141A,0.227
2,U82A A106U,-1.16
3,U82A A106C,-0.884
4,C85U A119C C131G G141C,-0.0963
5,C85G G128A,≤ -4.2
6,C85U C96A,-0.931
7,G84A U139A,-4.11
8,G84U C116U,-2.7
9,G84U C116G,-1.58
10,G81C C85A A142G,-1.69
11,C85G G92C G128A,≤ -4.2
12,G80C G81U,0.0733
13,G80A C87U,-0.519
14,G80A U82G C123A G152U,-4.06
15,G83U C95U C116U,-2.67
16,G81C A137U U139G U144A,-3.35
17,G83A G88C A91G C95U A137G,≤ -4.2
18,U82G A89C A98G A142C,-1.56
19,G81A U104G C105A G136C U146C,≤ -4.2
20,C85G A115U,-3.56
21,C85G A98U C129A U134C,-4.18

row,Variant,polymerase ribozyme fitness (log ratio)
1,C85U A137C,-3.1
2,U82G C95G,-1.65
3,G83U C85A,-3.55
4,G81A G84A,-0.338
5,U82C A89U C96G G100A A106U C114U A137C,≤ -4.2
6,C85A C116U,-1.08
7,G83A G140C,-3.99
8,G83A U101G U135C C149A,≤ -4.2
9,G83A C131U U139A G143A,≤ -4.2
10,C85U A106G,-0.585
11,C85U A106C,-3.33
12,G81U G84C C118G,-3.16
13,C85U A142U,-0.394
14,C85G U145A,-1.65
15,C85G U145C,-2.42
16,G81C G141A,-1.94
17,C85G G141U,-0.649
18,C85U C87U A150G,-1.59
19,U82G G92C A106G C116U U135C A150G,≤ -4.2
20,C85G C123U G141A,-0.441
21,G84A U127A,-3.74

row,Variant,polymerase ribozyme fitness (log ratio)
1,G84U A150G,-2.7
2,G83A C118G,-0.683
3,G84U A122C,-2.13
4,G81A C87U U146G,-3.41
5,C79G G124A,-3.82
6,U82G A106U C118U,-0.65
7,U82G C95U U102G,-3.59
8,G83C G143U,-2.8
9,U82A A107C,-3.72
10,G84A A89G A98G C114U,-2.55
11,C85U A147U,-0.285
12,G84A C93G,-3.77
13,C85G A150G,-2.67
14,C85G A150C,-4.1
15,G84C C93U,-4.07
16,C85U A97U,-2.44
17,G81U U90C C99A A142G,≤ -4.2
18,G84A A120U C123A G126U,0.597
19,G83C U101A,-1.07
20,C85A C116U A122C,-4.17
